Here are results for 2 molecules from publication PMC9569990 (International Journal of Molecular Sciences, 2022).

The Kd is a measure of binding affinity in units of concentration. Read a high Kd as a looser complex.

Common to all, as to experiment: SPR; cytokine immobilised on ProteOn GLH sensor chip by amine coupling (9,000-14,000 RU); S100P (wild type or mutant) as analyte, 62 nM-16 µM; 25 °C; 10 mM HEPES, 150 mM NaCl, 1 mM CaCl2, 0.05% TWEEN 20, pH 7.4; heterogeneous ligand model (two ligand populations), one-site model for IL-13; values averaged over analyte concentrations (n = 3-5)
Common to all, as to settings: both partners purified
A general note: In SPR one partner is held on a chip, and binding of the other changes the refractive index at the surface.

One assay deals with T1, Interleukin-31 (human, UniProt Q6EBC2 24-164).
T1 construct: Interleukin-31, human, UniProt Q6EBC2; see the manufacturer's catalogue number; also called IL-31; source: bought: PeproTech (source E. coli)
T1 sequence (looked up): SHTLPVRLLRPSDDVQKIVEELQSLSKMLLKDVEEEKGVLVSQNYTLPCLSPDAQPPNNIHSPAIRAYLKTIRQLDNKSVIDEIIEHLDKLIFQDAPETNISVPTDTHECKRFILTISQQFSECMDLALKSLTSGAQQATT

The target of another assay is T2, Interleukin-35 (human, UniProt P29459 23-219; Q14213 21-229).
T2 construct: the chain used for the SCOP family assignment; also called IL-35; source: bought: PeproTech (source HEK293)
T2 sequence (looked up) 1: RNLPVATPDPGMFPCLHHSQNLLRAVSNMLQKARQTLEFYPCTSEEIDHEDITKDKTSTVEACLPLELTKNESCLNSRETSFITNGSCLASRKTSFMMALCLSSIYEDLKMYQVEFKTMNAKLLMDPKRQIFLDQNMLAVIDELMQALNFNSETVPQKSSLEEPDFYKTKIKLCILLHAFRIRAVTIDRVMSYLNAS
T2 sequence (looked up) 2: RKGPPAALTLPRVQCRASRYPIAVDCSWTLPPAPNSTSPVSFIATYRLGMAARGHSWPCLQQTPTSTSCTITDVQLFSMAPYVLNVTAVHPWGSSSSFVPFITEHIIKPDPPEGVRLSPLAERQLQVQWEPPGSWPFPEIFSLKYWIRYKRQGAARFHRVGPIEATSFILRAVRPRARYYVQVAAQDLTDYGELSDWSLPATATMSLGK

A further assay concerns the target T3, Somatotropin (human, UniProt P01241 27-217).
T3 construct: Somatotropin (growth hormone), human, UniProt P01241; see the manufacturer's catalogue number; also called GH; growth hormone; source: bought: PeproTech (source E. coli)

For a further assay, the target named is T4, Growth hormone variant (human, UniProt P01242 27-217).
T4 construct: Growth hormone variant, human, UniProt P01242; see the manufacturer's catalogue number; also called GH-V; source: bought: R&D Systems (source E. coli)
T4 sequence (P01242 27-217, change not shown): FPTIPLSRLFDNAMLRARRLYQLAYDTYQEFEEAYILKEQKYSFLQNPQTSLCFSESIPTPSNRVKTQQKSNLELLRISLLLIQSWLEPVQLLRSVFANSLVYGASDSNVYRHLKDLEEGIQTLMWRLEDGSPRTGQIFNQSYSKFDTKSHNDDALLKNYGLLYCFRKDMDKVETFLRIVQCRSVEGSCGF

A further assay concerns the target T5, Interleukin-10 (human, UniProt P22301 19-178).
T5 construct: Interleukin-10, human, UniProt P22301; see the manufacturer's catalogue number; also called IL-10; source: bought: PeproTech (source E. coli)

The target of a further assay is T6, Interleukin-26 (human, UniProt Q9NPH9 22-171).
T6 construct: Interleukin-26, human, UniProt Q9NPH9; see the manufacturer's catalogue number; also called IL-26; source: bought: R&D Systems (source E. coli)
T6 sequence (looked up): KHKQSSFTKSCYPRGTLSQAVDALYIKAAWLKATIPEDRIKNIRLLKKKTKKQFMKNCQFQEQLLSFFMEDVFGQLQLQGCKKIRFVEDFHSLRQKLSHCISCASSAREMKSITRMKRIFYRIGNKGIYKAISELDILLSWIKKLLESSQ

For another assay, the target named is T7, Interleukin-13 (human, UniProt P35225 25-146).
T7 construct: Interleukin-13, human, UniProt P35225; see the manufacturer's catalogue number; also called IL-13; source: bought: PeproTech (source E. coli)
T7 sequence (P35225 25-146): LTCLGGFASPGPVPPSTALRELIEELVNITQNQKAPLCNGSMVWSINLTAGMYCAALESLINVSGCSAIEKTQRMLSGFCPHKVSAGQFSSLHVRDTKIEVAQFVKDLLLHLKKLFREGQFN

T5 sequence (P22301 19-178): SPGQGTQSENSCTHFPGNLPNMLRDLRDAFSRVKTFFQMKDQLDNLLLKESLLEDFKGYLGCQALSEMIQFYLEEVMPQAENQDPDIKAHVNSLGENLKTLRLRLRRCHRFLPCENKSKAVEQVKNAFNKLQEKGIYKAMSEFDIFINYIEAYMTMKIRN
T3 sequence (P01241 27-217): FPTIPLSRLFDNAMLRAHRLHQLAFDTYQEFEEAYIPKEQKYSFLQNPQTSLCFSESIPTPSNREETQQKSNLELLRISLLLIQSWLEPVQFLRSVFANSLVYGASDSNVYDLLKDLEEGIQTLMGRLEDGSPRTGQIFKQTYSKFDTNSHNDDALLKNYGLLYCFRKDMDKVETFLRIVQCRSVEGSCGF

B1: Human S100P mutant Δ42–47 (lacks PGFLQS sequence in the 'hinge') (natural protein)
chain: MTELETAMGMIIDVFSRYSGSEGSTQTLTKGELKVLMEKELGKDKDAVDKLLKDLDANGDAQVDFSEFIVFVAAITSACHKYFEKAGLK
notes: S100P protein, human, recombinant, with residues 42-47 (PGFLQS) deleted; source: E. coli, prepared as previously described [28]
As to B1, the Kd with Interleukin-31 was > 100 µM; with Interleukin-35, > 10 µM; in the assay with Somatotropin, > 100 µM; with Growth hormone variant it was > 100 µM; with Interleukin-10 it was > 100 µM; in the assay with Interleukin-26, > 100 µM. Moreover, the Kd in the assay with Interleukin-13 is > 100 µM.

B2: Human S100P mutant F89A (natural protein)
chain: MTELETAMGMIIDVFSRYSGSEGSTQTLTKGELKVLMEKELPGFLQSGKDKDAVDKLLKDLDANGDAQVDFSEFIVFVAAITSACHKYAEKAGLK
notes: S100P protein, human, recombinant, with F89A; source: E. coli, prepared as previously described [28]
With B2, the “Kd1 (heterogeneous ligand model, population 1)” value with Interleukin-31 is 202 nM; with Somatotropin, 29.2 µM; with Interleukin-10 it was 4.74 µM. For the same molecule, the “Kd2 (heterogeneous ligand model, population 2; column head printed as Kd1)” value with Interleukin-31 was determined as 1.18 µM; with Somatotropin, 138 µM; with Interleukin-10, 6.05 µM. Moreover, the Kd with Interleukin-35, in the assay with Growth hormone variant, with Interleukin-26 and in the assay with Interleukin-13 was > 100 µM in each case.
